Measurements from publication PMC7529893, “Structural basis for substrate recognition and chemical inhibition of oncogenic MAGE ubiquitin ligases” (Nature Communications, 2020).
Several values for one entry are separate records, joined by “and”; a condition that tells them apart may be missing. Equal entries are not always repeated. Square brackets hold non-standard residues; d marks the D form. Ends that are not written are not given here. Phe(4-CN) = N#Cc1ccc(C[C@H](N)C(=O)O)cc1; Phe(3-Me) = Cc1cccc(C[C@H](N)C(=O)O)c1

Molecular target: T1, GST-MAGE-A11 MHD (human MAGE-A11 MHD amino acid 218-429) (human, UniProt P43364 218-429)
T1 chain: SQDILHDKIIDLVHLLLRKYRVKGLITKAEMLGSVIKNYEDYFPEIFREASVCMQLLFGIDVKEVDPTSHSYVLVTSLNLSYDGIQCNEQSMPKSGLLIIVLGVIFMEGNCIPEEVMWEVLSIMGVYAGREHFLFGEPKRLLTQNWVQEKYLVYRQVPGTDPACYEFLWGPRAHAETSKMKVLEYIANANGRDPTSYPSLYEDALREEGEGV
Test: FRET
Settings: not given

Binder | IC50
FLVVVHQIRQLFQYQ (exact ends are only in Fig. 1b; 682-696 is inferred from 'three overlapping peptides centered on PCF11 amino acids 682-696' (the later 13-residue model peptide is 682-694)) [PCF11_6 peptide] | 70 nM and 65 nM
FLVVVHQARQLFQYQ [PCF11_6 peptide I689A] | 1020 nM
FLVVVHQIRQAFQYQ [PCF11_6 peptide L692A] | 540 nM
FLVVVHQIAQLFQYQ [PCF11_6 peptide R690A] | 15600 nM
ALVVVHQIRQLFQYQ (same inferred limits as m7) [PCF11_6 peptide F682A] | 570 nM
FLVVVHQIRQLAQYQ [PCF11_6 peptide F693A] | 2140 nM

molecular target: T2, MAGE-A11 MHD (218-429), as part of the crystallised fusion (human, UniProt P43364 218-429); test: crystal structure; PCF11 677-701 fused by GGSGRP to the N-terminus of MAGE-A11 MHD 218-429; sitting drop, 20 °C, 0.2 M Na acetate, 0.1 M Bis Tris propane pH 7.5, 20% PEG 3350; four protomers in the P 1 cell; settings: both partners purified
T2 construct: In the crystal it follows PCF11 677-701 and the linker GGSGRP (whole chain: m25); also called MAGE-A11 MHD (S218 to C-terminus); source: E. coli BL21(DE3), purified, on one chain with the PCF11 degron
T2 sequence (looked up): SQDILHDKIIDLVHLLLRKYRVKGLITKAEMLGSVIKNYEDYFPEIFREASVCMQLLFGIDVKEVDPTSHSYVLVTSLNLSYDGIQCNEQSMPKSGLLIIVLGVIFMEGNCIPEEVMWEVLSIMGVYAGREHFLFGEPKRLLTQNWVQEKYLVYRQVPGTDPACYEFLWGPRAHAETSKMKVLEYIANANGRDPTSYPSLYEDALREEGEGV

Binder | binding result
ITQDDFLVVVHQIRQLFQYQEGVRE (peptide, UniProt O94913 677-701, looked up, PCF11, human, amino acids 677-701; In the crystal it is joined by the linker GGSGRP to the N-terminus of m27 (whole chain: m25); also called PCF11 peptide; source: E. coli BL21(DE3), purified, on one chain with MAGE-A11 MHD) [PCF11 degron peptide (human PCF11 amino acid 677-701), as part of the crystallised fusion] | binds

molecular target: T3, GST-MAGE-A11 MHD (human MAGE-A11 MHD amino acid 218-429) (human, UniProt P43364 218-429); test: AlphaScreen or HTRF; TR-FRET competition: unlabelled peptide titrated against 200 nM FAM-PCF11_4, 5 nM Tb-anti-GST and 5 nM GST-MAGE-A11 MHD; 50 mM Tris pH 7.5, 20 mM MgCl2, 0.1 mg/ml BSA, 1 mM DTT; room temperature (~25 °C), 90 min; settings: both partners purified
T3 construct: also called recombinant GST-MAGE-A11; source: E. coli BL21(DE3), purified (GSTrap, Resource Q)
T3 sequence (looked up): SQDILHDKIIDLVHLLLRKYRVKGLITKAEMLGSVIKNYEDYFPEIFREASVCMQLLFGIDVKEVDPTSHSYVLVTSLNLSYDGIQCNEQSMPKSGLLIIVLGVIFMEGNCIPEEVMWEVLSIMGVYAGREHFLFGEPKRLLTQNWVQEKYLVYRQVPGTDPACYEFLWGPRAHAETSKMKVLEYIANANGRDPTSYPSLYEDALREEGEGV

Binder | IC50 [nM]
FLVVVHQIRQL[Phe(3-Me)]Q (PCF11 degron, human; the phenylalanine at position 12 (F693) is 3-methyl-phenylalanine; also called 3-methyl-phenylalanine variant; source: synthetic peptide) [PCF11 peptide (FLVVVHQIRQLF*Q) containing 3-methyl-phenylalanine at position 12] | 1.7
FLVVVHQIRQL[Phe(4-CN)]Q (PCF11 degron, human; the phenylalanine at position 12 (F693) is 4-cyano-phenylalanine; also called 4-cyano-phenylalanine variant; source: synthetic peptide) [PCF11 peptide (FLVVVHQIRQLF*Q) containing 4-cyano-phenylalanine at position 12] | 663
